The test system of one data set is HDAC4c D759Y. The following applies: HDAC4c mutant versus wild-type; cited from earlier work. The text has this: Next, we analyzed the mutational effects of SM1 mutants by OPTHiS screening (Figure 5A). […] In the peptide-complex structures, G+1, S+2 and T+4 residues on both peptides interact, directly or through water molecules, with residues on the cleft wall of the structural zinc-binding subdomain (Figure 3E). Mutations in this peptide region (G+1R, S+2D and T+4N/T+4A) altered the binding affin ... || Among the seven HDACs whose catalytic domain structures have been reported, HDAC4c is unique in that it has an open conformation when it binds to non-peptide molecules. In agreement with this, mutations at the ^+1GSI^+3 residues of two motifs and R+9 residue of the SM1 lead to a loss of its binding activity to HDAC4c/-5c (Figures 1 and 5). The class IIa HDAC-specific residues (D759, H842, and F871), which are located at the cleft to and entrance to the catalytic zinc-binding site, interact directly or indirectly with these residues of bound peptides (Figure 3D and E). Further, HDAC4c mutants o ...

In another data set the test system is HDAC4. The following applies: cited from earlier work. The text has this:
In contrast to other HDACs, class IIa HDACs have low deacetylase activity ([33]). However, their HDAC domains are directly involved in the transcriptional repression of several genes by forming a supra-complex with the NCoR/SMRT-HDAC3 complex ([16],[17]).

For another data set, the system named is HDAC5c. In words: Interaction with HDAC5c (yeast two-hybrid, GST pull-down, BiFC). The note with it: for interaction with HDAC5c, domain mapping: yeast two-hybrid only, strain EGY48, LexA-fused HDAC5c and SRD3c deletion constructs, liquid β-galactosidase assay.
For a further data set, the system named is HDAC4c. Put plainly: Interaction with HDAC4c (yeast two-hybrid, GST pull-down, BiFC). The note with it: for interaction with HDAC4c, domain mapping: yeast two-hybrid only, strain EGY48, LexA-fused HDAC4c and SRD3c deletion constructs, liquid β-galactosidase assay.

For “GSITQGIPR [SM1, conserved GSI motif 1361-1369 of SRD3c, …]”, the “binding affinity to HDAC4c D759Y” value with HDAC4c D759Y is “abrogated interactions”.

Turning to “SMRT: silencing mediator for retinoid and thyroid receptor, general corepressor”, the “change in deacetylase activity of HDAC4 in the presence of SMRT” value in the data set on HDAC4 is “lack of noticeable changes in the deacetylase activity of HDAC4”.

B1: I-A: SRD3c deletion construct K1316–G1390 (protein, UniProt Q9Y618 1316-1390, looked up, fragment)
chain: GRVGRAISSASIEGLMGRAIPPERHSPHHLKEQHHIRGSITQGIPRSYVEAQEDYLRREAKLLKREGTPPPPPPS
Take B1: in the data set with HDAC5c, the “interaction with HDAC5c, domain mapping” value is recorded as “independently interacted with HDAC4c/-5c”. Moreover, the “interaction with HDAC4c, domain mapping” value in the data set on HDAC4c is recorded as “independently interacted with HDAC4c/-5c”.

B2: II: SRD3c deletion construct P1396–S1515 (protein, UniProt Q9Y618 1396-1515, looked up, fragment)
chain: AYKTQALGPLKLKPAHEGLVATVKEAGRSIHEIPREELRHTPELPLAPRPLKEGSITQGTPLKYDTGASTTGSKKHDVRSLIGSPGRTFPPVHPLDVMADARALERACYEESLKSRPGTA
As for B2, in the data set with HDAC5c, the “interaction with HDAC5c, domain mapping” value is “independently interacted with HDAC4c/-5c, although the binding strength of region II was relatively weaker than that of region I-A”. Further, the “interaction with HDAC4c, domain mapping” value in the data set on HDAC4c is “independently interacted with HDAC4c/-5c, although the binding strength of region II was relatively weaker than that of region I-A”.

B3: SRD3n: N-terminal region of SRD3 (R1128–E1289) (protein, UniProt Q9Y618 1128-1289, looked up, fragment)
chain: GMSVQLHVPYSEHAKAPVGPVTMGLPLPMDPKKLAPFSGVKQEQLSPRGQAGPPESLGVPTAQEASVLRGTALGSVPGGSITKGIPSTRVPSDSAITYRGSITHGTPADVLYKGTITRIIGEDSPSRLDRGREDSLPKGHVIYEGKKGHVLSYEGGMSVTQC
For B3, the “binding to HDAC5c” value with HDAC5c (yeast two-hybrid (β-galactosidase), in vitro GST pull-down, BiFC in HEK293 cells, result in words) was “marginal interaction”. Moreover, the “binding to HDAC4c” value in the data set with HDAC4c (yeast two-hybrid (β-galactosidase), GST pull-down, BiFC in HEK293 cells, result in words) is “marginal interaction”.

These data come from PMC6294515, “Structural basis of the specific interaction of SMRT corepressor with histone deacetylase 4” (Nucleic Acids Research, 2018).
